4 molecules from PMC4267404, “Trihelix transcription factor GT-4 mediates salt tolerance via interaction with TEM2 in Arabidopsis” can be followed below.

Series [1] addresses T1, GST-GT-4 (Arabidopsis thaliana, UniProt Q9LU92 1-372).
T1 sequence: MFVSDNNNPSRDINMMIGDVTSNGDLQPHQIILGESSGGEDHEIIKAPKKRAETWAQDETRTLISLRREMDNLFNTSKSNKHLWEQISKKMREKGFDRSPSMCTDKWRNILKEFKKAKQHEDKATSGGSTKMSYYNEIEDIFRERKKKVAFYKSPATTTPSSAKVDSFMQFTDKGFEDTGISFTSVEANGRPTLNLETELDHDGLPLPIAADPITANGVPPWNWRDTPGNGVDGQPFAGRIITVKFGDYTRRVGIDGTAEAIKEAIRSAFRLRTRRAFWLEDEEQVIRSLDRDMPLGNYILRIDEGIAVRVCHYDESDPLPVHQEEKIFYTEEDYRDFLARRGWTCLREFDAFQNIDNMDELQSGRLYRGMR
The experiment in a line: EMSA; unlabeled competitor reduces band; Probes annealed in 50 mM NaCl (70 C 5 min, then room temperature); EMSA binding buffer, pH and temperature not given (as in ref. 57). The conditions noted are these: protein: recombinant; tags: N-terminal GST (pGEX6p-1); label: digoxigenin; annealed complementary oligos. In general terms: In EMSA bound probe runs differently from free probe, usually more slowly.

Series [2] concerns the target T1, GST-GT-4. The experiment in a line: EMSA; Probes annealed in 50 mM NaCl (70 C 5 min, then room temperature); EMSA binding buffer, pH and temperature not given (as in ref. 57). The settings on record: protein: recombinant; tags: N-terminal GST (pGEX6p-1); label: digoxigenin.

B1: P7 (MRE4) (dsDNA)
DNA 1: TATCTCACCGTTACCTCTCACCGTTACCTCTCACCTACCATT
DNA 2: AATGGTAGGTGAGAGGTAACGGTGAGAGGTAACGGTGAGATA
Turning to B1, the binding result with GST-GT-4 [1] was “binds”.

B2: P1 (GT-3 box) (dsDNA)
DNA 1: CGGGGTAAATAGGTAAATAGGTAAATA
DNA 2: TATTTACCTATTTACCTATTTACCCCG
For B2, the binding result with GST-GT-4 [1] is listed as “binds”.

B3: P2 (GT-3b box) (dsDNA)
DNA 1: CGGAAAAATCGAAAAATCGAAAAATT
DNA 2: AATTTTTCGATTTTTCGATTTTTCCG
Turning to B3, the binding result in the series with GST-GT-4 [1] is listed as “binds”.

B4: Cor15A promoter 60 bp fragment with GT-3b box (dsDNA)
DNA 1: TTTCTTTAAGGAAATACATCAGAGAGAAAAATTATTACGAAACGATTCTATTACAAGTAA
DNA 2: TTACTTGTAATAGAATCGTTTCGTAATAATTTTTCTCTCTGATGTATTTCCTTAAAGAAA
On to B4, for which, in the series with GST-GT-4 [2], the binding result is reported as “binds”.
